Biological target: valosin-containing protein (VCP)/p97 (UniProt P55072 1-806, labeled with Terbium (CoraFluor), DOL 0.33, in the TR-FRET assays)
Assay: FRET or BRET

Chain of valosin-containing protein (VCP)/p97 (P55072 whole entry): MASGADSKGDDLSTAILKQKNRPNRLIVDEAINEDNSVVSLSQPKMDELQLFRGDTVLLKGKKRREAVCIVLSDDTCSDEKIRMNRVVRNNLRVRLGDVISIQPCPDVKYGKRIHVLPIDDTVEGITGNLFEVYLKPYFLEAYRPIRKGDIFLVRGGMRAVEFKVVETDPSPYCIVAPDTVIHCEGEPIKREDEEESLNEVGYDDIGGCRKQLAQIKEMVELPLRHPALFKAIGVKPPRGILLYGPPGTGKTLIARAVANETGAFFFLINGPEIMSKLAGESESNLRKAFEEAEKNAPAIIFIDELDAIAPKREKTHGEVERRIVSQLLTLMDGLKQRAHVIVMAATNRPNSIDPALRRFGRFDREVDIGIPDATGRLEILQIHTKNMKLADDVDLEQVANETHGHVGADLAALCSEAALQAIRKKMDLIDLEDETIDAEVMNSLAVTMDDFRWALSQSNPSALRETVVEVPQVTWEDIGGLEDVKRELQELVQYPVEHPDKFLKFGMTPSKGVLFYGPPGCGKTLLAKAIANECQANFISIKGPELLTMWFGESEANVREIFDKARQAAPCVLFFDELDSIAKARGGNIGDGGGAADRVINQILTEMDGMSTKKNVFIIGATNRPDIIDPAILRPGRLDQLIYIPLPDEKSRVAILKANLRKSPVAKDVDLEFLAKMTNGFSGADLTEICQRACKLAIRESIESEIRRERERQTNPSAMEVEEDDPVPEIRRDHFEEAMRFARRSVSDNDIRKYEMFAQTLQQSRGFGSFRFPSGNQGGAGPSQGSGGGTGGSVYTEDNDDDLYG

Binder	IC50
valosin contain protein p97/p47 interacting protein 1 (VCPIP1), wild type (enzyme, labeled with BODIPY, DOL 0.23, as the labelled partner in the TR-FRET assays; unlabeled as competitor) MSQPPPPPPPLPPPPPPPEAPQTPSSLASAAASGGLLKRRDRRILSGSCPDPKCQARLFFPASGSVSIECTECGQRHEQQQLLGVEEVTDPDVVLHNLLRNALLGVTGAPKKNTELVKVMGLSNYHCKLLSPILARYGMDKQTGRAKLLRDMNQGELFDCALLGDRAFLIEPEHVNTVGYGKDRSGSLLYLHDTLEDIKRANKSQECLIPVHVDGDGHCLVHAVSRALVGRELFWHALRENLKQHFQQHLARYQALFHDFIDAAEWEDIINECDPLFVPPEGVPLGLRNIHIFGLANVLHRPIILLDSLSGMRSSGDYSATFLPGLIPAEKCTGKDGHLNKPICIAWSSSGRNHYIPLVGIKGAALPKLPMNLLPKAWGVPQDLIKKYIKLEEDGGCVIGGDRSLQDKYLLRLVAAMEEVFMDKHGIHPSLVADVHQYFYRRTGVIGVQPEEVTAAAKKAVMDNRLHKCLLCGALSELHVPPEWLAPGGKLYNLAKSTHGQLRTDKNYSFPLNNLVCSYDSVKDVLVPDYGMSNLTACNWCHGTSVRKVRGDGSIVYLDGDRTNSRSTGGKCGCGFKHFWDGKEYDNLPEAFPITLEWGGRVVRETVYWFQYESDSSLNSNVYDVAMKLVTKHFPGEFGSEILVQKVVHTILHQTAKKNPDDYTPVNIDGAHAQRVGDVQGQESESQLPTKIILTGQKTKTLHKEELNMSKTERTIQQNITEQASVMQKRKTEKLKQEQKGQPRTVSPSTIRDGPSSAPATPTKAPYSPTTSKEKKIRITTNDGRQSMVTLKSSTTFFELQESIAREFNIPPYLQCIRYGFPPKELMPPQAGMEKEPVPLQHGDRITIEILKSKAEGGQSAAAHSAHTVKQEDIAVTGKLSSKELQEQAEKEMYSLCLLATLMGEDVWSYAKGLPHMFQQGGVFYSIMKKTMGMADGKHCTFPHLPGKTFVYNASEDRLELCVDAAGHFPIGPDVEDLVKEAVSQVRAEATTRSRESSPSHGLLKLGSGGVVKKKSEQLHNVTAFQGKGHSLGTASGNPHLDPRARETSVVRKHNTGTDFSNSSTKTEPSVFTASSSNSELIRIAPGVVTMRDGRQLDPDLVEAQRKKLQEMVSSIQASMDRHLRDQSTEQSPSDLPQRKTEVVSSSAKSGSLQTGLPESFPLTGGTENLNTETTDGCVADALGAAFATRSKAQRGNSVEELEEMDSQDAEMTNTTEPMDHS	74.5 ± 13.9 nM
p47 (natural protein) MAAERQEALREFVAVTGAEEDRARFFLESAGWDLQIALASFYEDGGDEDIVTISQATPSSVSRGTAPSDNRVTSFRDLIHDQDEDEEEEEGQRFYAGGSERSGQQIVGPPRKKSPNELVDDLFKGAKEHGAVAVERVTKSPGETSKPRPFAGGGYRLGAAPEEESAYVAGEKRQHSSQDVHVVLKLWKSGFSLDNGELRSYQDPSNAQFLESIRRGEVPAELRRLAHGGQVNLDMEDHRDEDFVKPKGAFKAFTGEGQKLGSTAPQVLSTSSPAQQAENEAKASSSILIDESEPTTNIQIRLADGGRLVQKFNHSHRISDIRLFIVDARPAMAATSFILMTTFPNKELADESQTLKEANLLNAVIVQRLT	20.4 ± 2.8 nM

Reference: paper doi:10.1101/2024.10.01.616120 (bioRxiv, 2024)
